{"source": "paper PMC7714071", "about": "“Interaction of amyloid beta with humanin and acetylcholinesterase is modulated by ATP” (FEBS Open Bio, 2020)", "key": {"[1]": {"tested_on": "H1299 cells", "test": "MTT cell viability, H1299", "format": "cell-based, human", "conditions": "AChE-ID media, 48 h, H1299; Fig. 7B", "protocol": "Human NSCLC cell lines, A549 (ATCC CCL‐185) and H1299 (ATCC CRL‐5803), were purchased from the American Type Culture Collection (ATCC, Manassas, VA, USA). Cells were seeded as we reported earlier in 5 mL HyClone Dulbecco's modified Eagle's medium/nutrient mixture F‐12 (DMEM/F12) (GE Healthcare Life Sciences, Pittsburgh, PA, USA), supplemented with 10% Fetalgro bovine growth serum (FBS; RMBIO, Missoula, MT, USA), 50 U·mL^−1 penicillin, and […] streptomycin (Invitrogen, Life Technologies, Carlsbad, CA, USA) in 25‐cm^2 tissue culture flasks, and allowed to grow overnight in an incubator at 37 °C, 95% humidity, and 5% CO2. The cells were counted after trypan blue staining, with a hemocytometer.\nThe 3‐(4,5‐dimethylthiazol‐2‐yl)‐2,5‐diphenyl‐tetrazolium bromide (MTT) reduction assay (Sigma‐Aldrich), used to measure cell viability, was carried out as we reported earlier. […] The absorbance was measured at 570 nm in a plate reader. […]\nConditioned media were immunodepleted (ID) according to the methods previously described and our recently published report. […] The ID media were then carefully removed and analyzed for the presence of the target protein or peptide by ELISA. The same amount of protein (3 µL of 600 µg·mL^−1 total protein) of each sample was analyzed in the experiments. […]"}, "[2]": {"tested_on": "Aβ cytotoxicity", "conditions": "versus Aβ aggregates alone; cited from earlier work", "description": "Almost all types of cells produce amyloid beta (Aβ), a peptide well recognized for its role in the development and progression of different stages of Alzheimer's disease (AD). The Aβ peptide is ~ 4 kDa and derived from the sequential processing of the higher molecular weight amyloid precursor protein by two membrane‐bound endoproteases, β‐ and γ‐secretase. Different C‐terminal Aβ heterogeneity results from processing by γ‐secretase, where Aβ40 represents the most abundant isoform (~ 90%) as compared to Aβ42 (~ 10%). Self‐assembled Aβ40/42 peptides into amyloid fib ... || Soluble oligomers of proteins implicated in different diseases are primarily thought to be the main toxic form as opposed to the larger fibrillar assemblies. Aβ regions containing Tyr and Ser (H6DSGY10 and G25SNKG29) (Fig. 1) along with post‐translational modifications of these regions, have been implicated in misfolding, oligomerization, or fibril formation of Aβ [5, 10, 11, 16, 41]. […] Aβ proteins a ... || Acetylcholinesterase (AChE) is an enzyme known for its role in terminating acetylcholine‐mediated neurotransmission at the synaptic cleft. The majority of the cortical AChE in the Alzheimer's brain is mainly associated with the amyloid core of senile plaques. […]"}}}
{"molecule": "acetylcholinesterase (protein) EGREDAELLVTVRGGRLRGIRLKTPGGPVSAFLGIPFAEPPMGPRRFLPPEPKQPWSGVVDATTFQSVCYQYVDTLYPGFEGTEMWNPNRELSEDCLYLNVWTPYPRPTSPTPVLVWIYGGGFYSGASSLDVYDGRFLVQAERTVLVSMNYRVGAFGFLALPGSREAPGNVGLLDQRLALQWVQENVAAFGGDPTSVTLFGESAGAASVGMHLLSPPSRGLFHRAVLQSGAPNGPWATVGMGEARRRATQLAHLVGCPPGGTGGNDTELVACLRTRPAQVLVNHEWHVLPQESVFRFSFVPVVDGDFLSDTPEALINAGDFHGLQVLVGVVKDEGSYFLVYGAPGFSKDNESLISRAEFLAGVRVGVPQVSDLAAEAVVLHYTDWLHPEDPARLREALSDVVGDHNVVCPVAQLAGRLAAQGARVYAYVFEHRASTLSWPLWMGVPHGYEIEFIFGIPLDPSRNYTAEEKIFAQRLMRYWANFARTGDPNEPRDPKAPQWPPYTAGAQQYVSLDLRPLEVRRGLRAQACAFWNRFLPKLLSATDTLDEAERQWKAEFHRWSSYMVHWKNQFDHYSKQDRCSDL", "values": [{"measurement": "effect of AChE immunodepletion on cell viability", "setting": "[1]", "value": "no effect"}, {"measurement": "toxicity of AChE-amyloid complexes", "setting": "[2]", "value": "Higher toxicity"}]}
